B1: CPEB3 Ribozyme (parent)
chain: GGGGGCCACAGCAGAAGCGUUCACGUCGCGGCCCCUGUCAGAUUCUGGUGAAUCUGCGAAUUCUGCUGU

The variants in the series derive from B1. In words: self-cleavage, relative activity (ratio to wild type); higher = more cleavage; co-transcriptional.
Consider GGUGGCCACAGCAGAAGCGUUCACGUCGCGGCCCCUGUCAGAUUAUGGUGAAUCUGCGAAUUCUGCUGU [G3U C45A], for which the self-cleavage came out at 0.105.

As for GGUGGCCACAGCAGAAGCGUUCACGUCGCGGCCCCUGUCAGAUUGUGGUGAAUCUGCGAAUUCUGCUGU [G3U C45G], the self-cleavage came to 0.112.

Regarding GGUGGCCACGGCAGAAGCGUUCACGUCGCGGCCCCUGUCAGAUUCUGGUGAAUCUGCGAAUUCUGCUGU [G3U A10G], the self-cleavage worked out at 0.158.

With GGUGGCCACAGCAGAAGCGUUCACGUCGCGGCCCCUGUCAGAUUCUGGUGAAUCUGCGAAUUCUUCUGU [G3U G65U], the self-cleavage amounted to 0.101.

Take GGCGGCCACAGCAGAAGCGUUCACGUCGCGGCCCCUGUCAGAUUCUGGUGAAUCUGCGAAUUCUGCCGU [G3C U67C]: the self-cleavage was found to be 0.218.

Consider GGUGGCCACAGCAGAAGCGUUCACUUCGCGGCCCCUGUCAGAUUCUGGUGAAUCUGCGAAUUCUGCUGU [G3U G25U], for which the self-cleavage is 0.0356.

In the case of GGUGGCCACAGCAGAAGCGUUCACAUCGCGGCCCCUGUCAGAUUCUGGUGAAUCUGCGAAUUCUGCUGU [G3U G25A], the self-cleavage was 0.046.

For the variant GGCGGCCACAGCAGAAGCGUUCACGUCGCGGCCCCUGUCAGAUUCUGGUGAAACUGCGAAUUCUGCUGU [G3C U53A], the self-cleavage is 0.0705.

For GGUGGCCACAGCAGAAGCGUUCACGUCGCGGACCCUGUCAGAUUCUGGUGAAUCUGCGAAUUCUGCUGU [G3U C32A], the self-cleavage amounted to 0.0393.

In the case of GGUGGCCACAGCAGAAGCGUUCACGUCGCGGGCCCUGUCAGAUUCUGGUGAAUCUGCGAAUUCUGCUGU [G3U C32G], the self-cleavage stood at 0.054.

For GGUGGCCACAGCAGAAGCGUUCACGACGCGGCCCCUGUCAGAUUCUGGUGAAUCUGCGAAUUCUGCUGU [G3U U26A], the self-cleavage is 0.0295.

Take GGUGGCCACAGGAGAAGCGUUCACGUCGCGGCCCCUGUCAGAUUCUGGUGAAUCUGCGAAUUCUGCUGU [G3U C12G]: the self-cleavage was 0.0607.

On to GGUGGCCACAGUAGAAGCGUUCACGUCGCGGCCCCUGUCAGAUUCUGGUGAAUCUGCGAAUUCUGCUGU [G3U C12U], for which the self-cleavage is 0.169.

Consider GGUGGCCACAGCAGAAGCGUUCACGUCGCGGCCCCUGUCAGAUUCUGGUAAAUCUGCGAAUUCUGCUGU [G3U G50A], for which the self-cleavage is 0.172.

As to GGUGGCCACAGCAGAAGCGUUCACGUCGCGGCCCCUGUCAGAUUCUGGUUAAUCUGCGAAUUCUGCUGU [G3U G50U], the self-cleavage turned out to be 0.171.

Turning to GGUGGCCACAGCAGAAGCGUUCACGUCGCGGCCCCAGUCAGAUUCUGGUGAAUCUGCGAAUUCUGCUGU [G3U U36A], the self-cleavage worked out at 0.0376.

On to GGUGGCCACAGCAGAAGCGUUCACGUCGCGGCCCCUGUCAGAUUCUGGUGAUUCUGCGAAUUCUGCUGU [G3U A52U], for which the self-cleavage was found to be 0.142.

For the variant GGUGGCCACAGCAGAAGCGUUCACGUCGCGGCCCCUGUCAGAUUCUGGUGAGUCUGCGAAUUCUGCUGU [G3U A52G], the self-cleavage stood at 0.122.

Regarding GGUGGCCACAGCAGAAGCGUUCACGUCGCGGCCCCUGUCAGAUUCUGGUGACUCUGCGAAUUCUGCUGU [G3U A52C], the self-cleavage stood at 0.0886.

Regarding GGUGGCCACAGCAGAAGCGUUCCCGUCGCGGCCCCUGUCAGAUUCUGGUGAAUCUGCGAAUUCUGCUGU [G3U A23C], the self-cleavage amounted to 0.135.

With GGUGGCCACAGCAGAAGCGUUCUCGUCGCGGCCCCUGUCAGAUUCUGGUGAAUCUGCGAAUUCUGCUGU [G3U A23U], the self-cleavage was 0.344.

For the variant GGUGGCCACAGCAGAAGCGUUCACGUCGCGGCCCCUGUCAGAGUCUGGUGAAUCUGCGAAUUCUGCUGU [G3U U43G], the self-cleavage came out at 0.0687.

Take GGUGGCCACAGCAGAAACGUUCACGUCGCGGCCCCUGUCAGAUUCUGGUGAAUCUGCGAAUUCUGCUGU [G3U G17A]: the self-cleavage turned out to be 0.0459.

As for GGUGGCCACAGCAGAAGCGUUCACGUCGCGGCCCCUGUCCGAUUCUGGUGAAUCUGCGAAUUCUGCUGU [G3U A40C], the self-cleavage worked out at 0.0469.

For GGUGGCCACAGCAGAAGCGUUCACGUCGCGGCCGCUGUCAGAUUCUGGUGAAUCUGCGAAUUCUGCUGU [G3U C34G], the self-cleavage stood at 0.643.

As to GGUGGCCACAGCAGAAGCGUUCACGUCGCGGCGCCUGUCAGAUUCUGGUGAAUCUGCGAAUUCUGCUGU [G3U C33G], the self-cleavage was found to be 0.0603.

As for GGUGGCCACAGCAGAAGCGUUCACGUCGGGGCCCCUGUCAGAUUCUGGUGAAUCUGCGAAUUCUGCUGU [G3U C29G], the self-cleavage is 0.0557.

In the case of GGUGGCCACAGCAGAAGCGUUCACGUCGAGGCCCCUGUCAGAUUCUGGUGAAUCUGCGAAUUCUGCUGU [G3U C29A], the self-cleavage was determined as 0.0168.

Consider GGUGGCCACAGCAGAAGCGUUCACGUCGCGGCCCCUGUCAGAUUCUGGUGAAUCUACGAAUUCUGCUGU [G3U G56A], for which the self-cleavage came to 0.035.

For GGUGGCCACAGCAGAAGAGUUCACGUCGCGGCCCCUGUCAGAUUCUGGUGAAUCUGCGAAUUCUGCUGU [G3U C18A], the self-cleavage turned out to be 0.0631.

For GGUGGCCACAGCAGAAGUGUUCACGUCGCGGCCCCUGUCAGAUUCUGGUGAAUCUGCGAAUUCUGCUGU [G3U C18U], the self-cleavage was determined as 0.0757.

Consider GGUGGCCACAGCAGAAGGGUUCACGUCGCGGCCCCUGUCAGAUUCUGGUGAAUCUGCGAAUUCUGCUGU [G3U C18G], for which the self-cleavage worked out at 0.0415.

Consider GGUGGCCACAGCAGAAGCGUUCACGUCGCGGCCCCUGUCAGAUUCUGGGGAAUCUGCGAAUUCUGCUGU [G3U U49G], for which the self-cleavage worked out at 0.0811.

Turning to GGCGGCCACAGCAGAAGCGUUCACGUCGCGGCCCCUGUCAGAUUCUGGUGAAUCUGCGAAUUCUGCUGA [G3C U69A], the self-cleavage came out at 0.209.

As to GGUUGCCACAGCAGAAGCGUUCACGUCGCGGCCCCUGUCAGAUUCUGGUGAAUCUGCGAAUUCUGCUGU [G3U G4U], the self-cleavage came to 0.0247.

In the case of GGUGGCCACAGCAGAAGCGUUCACGUCGCGGCCCCUGUCAGGUUCUGGUGAAUCUGCGAAUUCUGCUGU [G3U A42G], the self-cleavage was 0.11.

Turning to GGUGGCCACAGCAGAAGCGUUCACGUCGCGGCCCCUGUCAGUUUCUGGUGAAUCUGCGAAUUCUGCUGU [G3U A42U], the self-cleavage came out at 0.0748.

In the case of GGUGGCCACAGCAGAAGCGUUCACGUCGCGGCCCCUGUCAGCUUCUGGUGAAUCUGCGAAUUCUGCUGU [G3U A42C], the self-cleavage turned out to be 0.0373.

As to GGCGGCCACAGCAGAAGCGUUCACGUCGCGGCCCCUGUCAGAUUCUGGUGAAUCUGCGAAUACUGCUGU [G3C U62A], the self-cleavage was determined as 0.0658.

Values taken from the RNAGym collection of RNA variant scans (doi:10.7554/elife.80360).
